Experimental data as given in the supplement of paper PMC12764529.
± gives the half width of the 95% confidence interval.

Assays:
[1] = folding stability dG unfold from trypsin proteolysis; higher = more stable
In short: (§1)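 Digests were run with trypsin and chymotrypsin at 11 concentrations in threefold dilutions, plus a no-protease condition, on designed mini-proteins in a PA-tagged cDNA display construct. The mini-proteins were under 80 residues, had no cysteine, and were kept only when AlphaFold2 dimer inter-PAE was above 15. After sequencing, Bayesian fitting of the counts gave K50, from which unfolding free energy was derived against a sequence-predicted unfolded-state K50 and a shared folded-state K50, per protease or combined.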

[2] = folding stability dG unfold (combined trypsin and chymotrypsin); higher = more stable
In short: as §1

[3] = folding stability dG unfold from chymotrypsin proteolysis; higher = more stable
In short: as §1

Sequence	folding stability dG unfold [1]	folding stability dG unfold [2]	folding stability dG unfold [3]
SAGGSAGGPIKDSKGKFIVTFEFPNGLKKKFEVENIKNPEIEFNFNGKKVKTKIIEIKKGDESKSAGGSAGG [r6_575_TrMRF]	-0.117 ± 0.12 kcal/mol	0.0149 ± 0.12 kcal/mol	-0.004 ± 0.21 kcal/mol
SAGGSAGGSAGGKDGYYKAIIELPGGEKREIVFKYEDFEEALKSLGIPLENVKIVKIEEGSAGGSAGGSAGG [r7_211_TrMRF]	3.3 ± 0.2 kcal/mol	3.48 ± 0.18 kcal/mol	3.49 ± 0.11 kcal/mol
SAGGSAGGSMKYTLLSTRKNPDGTELRLIEVSEDPEKAKEYLESQGAVEIEFKKNIMTVTFKSSAGGSAGGS [r20_222_JUSTAS]	-0.216 ± 0.22 kcal/mol	-0.214 ± 0.17 kcal/mol	-0.321 ± 0.32 kcal/mol
SAGMPVEIPLVIRLTRYRDLPDGPELAEVRELPLPLRADPSELDNPELLAFIREALEKLPDEIREVEIASAG [r5_849_TrMRF]	-0.255 ± 0.27 kcal/mol	0.479 ± 0.17 kcal/mol	0.757 ± 0.11 kcal/mol
SAGGSAGGSAGGSGPSVTVSTTTLPPLPVTVETVTVGDTTVLVVFTPEGGSAVVPSGALSAGGSAGGSAGGS [r4_256_JUSTAS]	1.96 ± 0.091 kcal/mol	1.4 ± 0.087 kcal/mol	0.858 ± 0.02 kcal/mol
SWTFPILIRFPFDDPEDLDKAREMAEDLVRYLAEEFGWPVKIDKVKYERNPENGWVWIRAEITVTPPDDVSA [r9_105_TrROS]	3.62 ± 0.08 kcal/mol	4.9 ± 0.11 kcal/mol	5.31 ± 0.098 kcal/mol
SAGGKTIVIELTPEEVEELLKKLLEELKKKAEENPDAKITIVITTPDGRTYTITIDLKTGKITIEELPSAGG [r13_216_TrROS_Hall]	2.39 ± 0.051 kcal/mol	3.43 ± 0.1 kcal/mol	3.93 ± 0.13 kcal/mol
SAGGSAMKVDPSTKVVTVTDPKTGKEYRVNLPDVPPEKGVEVKVDNGKVTVKTEEGVRVIPYSELKSAGGSA [r15_864_JUSTAS]	0.609 ± 0.044 kcal/mol	0.71 ± 0.097 kcal/mol	0.538 ± 0.12 kcal/mol
SAGGSAGGSAGPPNKPVYVRVRIQMPNGKKKTFWFKDVEQIEKNLKEEFGIRDIEIEPIKSAGGSAGGSAGG [r17_508_TrROS]	1.62 ± 0.028 kcal/mol	1.67 ± 0.046 kcal/mol	1.71 ± 0.026 kcal/mol
SAGGSAGGSAGGTITIPIYLDDKWITITRIELSPPDGKIKIEFTFNNRPREFDIPIPPGASAGGSAGGSAGG [r7_477_TrROS]	1.9 ± 0.049 kcal/mol	2.36 ± 0.11 kcal/mol	2.71 ± 0.074 kcal/mol
SAGGSAKVIAVPSLEEALKLAEEAAKEGKDIVVLFPDNRLLVVEVKPAPDDKPVLKLKVFEIPPELSAGGSA [r15_761_TrMRF]	0.47 ± 0.049 kcal/mol	0.767 ± 0.15 kcal/mol	0.974 ± 0.072 kcal/mol
SAGGSAGGMTITLTLPDGTVITITVSRPGSPTTVVSVKAERPARGGTDIPEEVAKELAEKILKESAGGSAGG [r6_235_JUSTAS]	1.51 ± 0.037 kcal/mol	2.55 ± 0.076 kcal/mol	2.96 ± 0.11 kcal/mol
SAGGSAMTIEKREDGYLVITVDVPPGTSPEELAERLKKLFPNEEVTVTVVKDGKLVKEFVIKAEDLSAGGSA [r15_1047_TrROS_Hall]	2.25 ± 0.056 kcal/mol	2.2 ± 0.071 kcal/mol	2.06 ± 0.034 kcal/mol
SAGGSAGGSAGGSSYQLKLEAEFLVGDSSGKLYKVKLTITVNEDGSISIDLEVLSVFDVSAGGSAGGSAGGS [r4_496_TrMRF]	4.16 ± 0.2 kcal/mol	5.41 ± 0.16 kcal/mol	5.46 ± 0.11 kcal/mol
SAGGSAGGSADNPDDKKKQKPKPEIKVKVEWVVIPNGFLIFEITIAGGITLTIIIPFPPNMFSAGGSAGGSA [r18_192_TrROS]	2 ± 0.058 kcal/mol	2.84 ± 0.16 kcal/mol	3.09 ± 0.035 kcal/mol
SAGGSAGGSKKEYLVLVYNPATGEPFPILAPDDVPFEELAKKIADEILKGLPKDVKIEFVKLGSAGGSAGGS [r20_213_TrMRF]	0.808 ± 0.086 kcal/mol	0.874 ± 0.17 kcal/mol	0.795 ± 0.061 kcal/mol
SAGKIEVKKNYVVIEIKVEGKELKLVIKVKTKEEQEKALELVKKLEEELKKEGLEVEVKVEVFKEGEEVSAG [r5_823_TrROS_Hall]	2.2 ± 0.15 kcal/mol	2.8 ± 0.23 kcal/mol	3 ± 0.16 kcal/mol
SAGGSAGGSAGGGKLRIKLYHPETGKISEIEVEVPDKPLEEVLEELEKELGVEVVDASLESAGGSAGGSAGG [r7_590_TrMRF]	0.941 ± 0.054 kcal/mol	1.44 ± 0.14 kcal/mol	1.68 ± 0.045 kcal/mol
SMKVKPGEKIKVTVLALFYDKETKKLYLVKAEVEATVELDEDGNLTVKVEVKKVEVVEEMPLDELKELLKSA [r9_423_TrROS_Hall]	2.29 ± 0.14 kcal/mol	2.97 ± 0.18 kcal/mol	3.4 ± 0.067 kcal/mol
SAGGSAGGSMPFIKVKVRFIEPNGIERTFEIELPEDKNLDEAIKLAPLFAKNGLPVEIEEVEGSAGGSAGGS [r12_804_TrMRF]	0.758 ± 0.089 kcal/mol	0.466 ± 0.18 kcal/mol	0.0494 ± 0.44 kcal/mol
SAGKKKFITIVIPIEKKEKLKKAVEELKKKFNAKELAVIPNPEKNEIIEVVVKETKDAIIKIVIIAKESAGG [r19_262_TrMRF]	1.68 ± 0.036 kcal/mol	1.45 ± 0.089 kcal/mol	1.26 ± 0.029 kcal/mol

Sequence	folding stability dG unfold [1]	folding stability dG unfold [2]	folding stability dG unfold [3]
SAGGSAGGSAGGLPPGAKVKVEIEISYDDPFSGPTNEYNSFPVELNFEPPEPIPTDPRLNSAGGSAGGSAGG [r7_522_TrMRF]	-0.683 ± 0.16 kcal/mol	< -1 kcal/mol	-1.38 ± 0.55 kcal/mol
SAKKIPLDDAKIRIKMESPNGMIMEFPIKNVQIDPKNGKLSFEFPMRIYNPDNGKERPMRMKIDEIVPVSAG [r14_825_TrROS]	0.107 ± 0.37 kcal/mol	0.22 ± 0.19 kcal/mol	0.299 ± 0.25 kcal/mol
SAGSMEPGEVLNVTMTFYDTSGNKLGTVNFTFTDEEEAKKKIEELAKEIKEKLNKNVKVTVEINKSPSLSAG [r5_232_JUSTAS]	3.5 ± 0.25 kcal/mol	4.76 ± 0.78 kcal/mol	4.59 ± 0.23 kcal/mol
SAGGSAGGSAGMIVIKNPETKEYYVIKFDGKEYVIELSEDELKELLEKLKGKDVEIKKLPSAGGSAGGSAGG [r11_57_TrROS_Hall]	2.01 ± 0.16 kcal/mol	1.96 ± 0.2 kcal/mol	1.93 ± 0.048 kcal/mol
SAGGSAGMTITSATEVGTTTFNGGSITHYTLTTPSGKTITGEVDPATGTLTISFPETGLSITIPPKSAGGSA [r15_159_JUSTAS]	1.09 ± 0.023 kcal/mol	1 ± 0.1 kcal/mol	0.729 ± 0.19 kcal/mol
SAGGSAETLTITLTVKPGETVTIKALFKAEDGSVYAVTATFTAEDEGTVTITVTRLPPGVKDLADLSAGGSA [r15_909_TrROS_Hall]	2.83 ± 0.099 kcal/mol	4.4 ± 0.16 kcal/mol	4.71 ± 0.1 kcal/mol
SAGGSMIPLTVTRYDPNSDKPVSTTPVVYDPETGTWTAYPPDGSRTTYALSLEDLIAALPSTWSVGPSAGGS [r16_543_JUSTAS]	0.452 ± 0.034 kcal/mol	0.567 ± 0.044 kcal/mol	0.599 ± 0.052 kcal/mol
SAGGSAGGGMKVKKIEIKKDPNNPNIYTITIELEDEPIEYTVPPSTPTTIKKPGGKPLYSSPLPSAGGSAGG [r6_922_JUSTAS]	-0.626 ± 0.24 kcal/mol	0.567 ± 0.15 kcal/mol	0.986 ± 0.26 kcal/mol
SAGGSPNFRIHIEGPEGKTLQYPVDPGFNKPDIQDWLQELGNIEIDQHPNDGWITIRIPKDALDQFSAGGSA [r2_164_TrROS]	0.226 ± 0.12 kcal/mol	0.161 ± 0.27 kcal/mol	0.0882 ± 0.21 kcal/mol
SAGMTFTVDVEEETFSETKVIRVPVEYDDPALVDVAAAEIREALGIPESESVTVEREPRRATITIVIPASAG [r14_804_JUSTAS]	0.267 ± 0.031 kcal/mol	0.743 ± 0.051 kcal/mol	0.954 ± 0.029 kcal/mol
SAGGSAGGSAGGSPKVYVELRFKLPNNLYVEIRYEIDPEKPGYVDWEVRLFDENGNPLGSAGGSAGGSAGGS [r4_297_TrMRF]	3.61 ± 0.23 kcal/mol	4.56 ± 0.16 kcal/mol	4.74 ± 0.096 kcal/mol
SAGGSMKPVKKTIVILKPSSVTEEEVKEEVVEKAKELGLKVKPIRTEVYPLPDYYLVVVEVEIEVPPESAGG [r13_351_TrMRF]	1.56 ± 0.11 kcal/mol	1.38 ± 0.21 kcal/mol	1.24 ± 0.072 kcal/mol
SKTIVIELENIEDMTKEELKNLIKELAEKGETVKVTILNKDGKEVKTIEIKPGEIVPFPKGSKVLIKIEKSA [r9_264_TrROS_Hall]	1.42 ± 0.062 kcal/mol	1.37 ± 0.15 kcal/mol	1.49 ± 0.036 kcal/mol
SAGGPTLKVKIYLPEEGKVIEFTFEAKKDEAEKIAKELEKLFPGYKLEGVKIFETPDSIELLAVASPESAGG [r13_196_TrMRF]	3.26 ± 0.11 kcal/mol	3.52 ± 0.069 kcal/mol	3.65 ± 0.075 kcal/mol
SMKVERERRTIERTLPDGRKVKVEIDLFRPEDGKPWALIKITVTDENGVPTEREILAPAELAEKVIEELFSA [r9_189_TrMRF]	2.34 ± 0.055 kcal/mol	2.08 ± 0.069 kcal/mol	1.78 ± 0.039 kcal/mol
SAGMEVEILGAEVDPETGVVKVVAVGRDPVTGVLVVDEITIKGDTVEIRREVYFPNTGKKAETTATIPLSAG [r5_150_TrMRF]	1.66 ± 0.13 kcal/mol	1.55 ± 0.12 kcal/mol	1.43 ± 0.071 kcal/mol
SAGGSSSSALVTVPRTETFPGTTLTTETLITIDPETGTVKVTSTVYSEGEPVEVVPSTVPAAEVTLSAGGSA [r2_188_JUSTAS]	0.566 ± 0.036 kcal/mol	0.592 ± 0.077 kcal/mol	0.503 ± 0.051 kcal/mol
SAGGSAGGIEVKIEGEIKPVKVTVSFSTANGDGNPKEYPVEKTYLVVDIKIEVNSPEAAKKINISAGGSAGG [r6_149_TrMRF]	1.37 ± 0.058 kcal/mol	2.51 ± 0.14 kcal/mol	3 ± 0.13 kcal/mol
SAGGSAMTVEELKELFPGYPITEITDFQPVDGWYTLSIKYPNNGKKRQINVEGMPPELAKEIMELISAGGSA [r15_830_TrROS]	0.161 ± 0.036 kcal/mol	0.0457 ± 0.098 kcal/mol	-0.394 ± 0.21 kcal/mol
SAGGSSPELAAERLAEELRRQGYAVREVVVTYDPAGTVTVSAVIEDPADPAATSTLTVTVPLAELGSAGGSA [r2_384_JUSTAS]	2.45 ± 0.059 kcal/mol	2.73 ± 0.046 kcal/mol	2.91 ± 0.024 kcal/mol
SAGGNNIYVHIQFKPKEQKMERTPDNGKWDMEYKWEIDITIYYPKGMSPEQAERLVNELREIFPGIKSAGGS [r8_306_TrROS]	1.12 ± 0.072 kcal/mol	1.99 ± 0.12 kcal/mol	2.54 ± 0.047 kcal/mol
